From paper PMC6980832, “Crystal structures of Triosephosphate Isomerases from Taenia solium and Schistosoma mansoni provide insights for vaccine rationale and drug design against helminth parasites” (PLoS Neglected Tropical Diseases, 2020)

Key:
purified protein [1] = substrate: O=CC(O)COP(=O)(O)O; assay: purified protein; assay type: biochemical, Taenia solium; details: 0.1 M TEA-HCl pH 7.4, 10 mM EDTA, 0.2 mM NADH, 21 °C, G3P 0 to 5 mM, G3P to DHAP direction
purified protein [2] = substrate: O=CC(O)COP(=O)(O)O; assay: purified protein; assay type: biochemical, Schistosoma mansoni; details: 0.1 M TEA-HCl pH 7.4, 10 mM EDTA, 0.2 mM NADH, 21 °C, G3P 0 to 5 mM, G3P to DHAP direction

| Protein | Km (purified protein [1]) | kcat (purified protein [1]) | kcat/Km (purified protein [1]) | Km (purified protein [2]) | kcat (purified protein [2]) | kcat/Km (purified protein [2]) |
| --- | --- | --- | --- | --- | --- | --- |
| TsTPI (Taenia solium) (protein, full length, codon-optimised synthetic gene, E. coli tpi-null strain, modified pET19; extra Gly-Pro-His before Met1; homodimer) MTRKLFVGGNWKMNGSYSHINTFFDTLQKADTDPNADIVIGVPACYLKYAQDKAPKGIKIAAENCYKVGSGAFTGEISTEMIKDCGCEWVILGHSERRHIFGESNELIGEKVKHALDSGLNVIPCIGELLSEREAGKTNDVCFAQMDAIAKNVPSKEAWDKVVIAYEPVWAIGTGKTATPAQAQEVHKVVRDWIRKHVDAGIADKVRILYGGSVTASNAKDLGTQPDVDGFLVGGASLKPDFITIINARR | 0.31 ± 0.03 mM | 993 ± 44 s⁻¹ | 3.15e+06 M⁻¹ s⁻¹ |  |  |  |
| SmTPI (Schistosoma mansoni) (protein, full length, codon-optimised synthetic gene, E. coli tpi-null strain, modified pET19; extra Gly-Pro-His before Met1; homodimer about 50 kDa) MSGSRKFFVGGNWKMNGSRDDNDKLLKLLSEAHFDDNTEVLIAPPSVFLHEIRKSLKKEIHVAAQNCYKVSKGAFTGEISPAMIRDIGCDWVILGHSERRNIFGESDELIAEKVQHALAEGLSVIACIGETLSERESNKTEEVCVRQLKAIANKIKSADEWKRVVVAYEPVWAIGTGKVATPQQAQEVHNFLRKWFKTNAPNGVDEKIRIIYGGSVTAANCKELAQQHDVDGFLVGGASLKPEFTEICKARQR |  |  |  | 0.48 ± 0.07 mM | 2870 ± 138 s⁻¹ | 5.8e+06 M⁻¹ s⁻¹ |
